Laboratory results as given in US20020127657A1.

Molecular target: GST-fusion of the truncated CD2 tail (CD2221-282) (human) (UniProt P06729)
Experiment: NMR titration, estimate from line broadening in fast exchange

Chain of GST-fusion of the truncated CD2 tail (CD2221-282) (human) (P06729 245-306): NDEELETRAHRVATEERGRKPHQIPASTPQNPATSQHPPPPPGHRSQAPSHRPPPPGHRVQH

Q: With “purified binding domain of CD2BP2 comprising amino acids 256-341 (His-tagged, NMR sample)” as the substance, how does the koff read?
A: > 1000 s⁻¹
